Assay [1] deals with CapH C-terminal domain (residues 67-107) with Ile99 to Met mutation, crystallised (E. coli MS115-1). Nature of the assay: crystal structure.
Assay [2] addresses CapH C-terminal domain (residues 67-107), crystallised (E. coli MS115-1). Nature of the assay: crystal structure.
Assay [3] deals with MBP-fused CapH (I99M) mutant (E. coli MS115-1). Nature of the assay: SEC-MALS. (In gel filtration, larger molecules generally elute earlier.)

These results are taken from paper doi:10.1101/2022.04.27.489752.

Regarding “CapH C-terminal domain (residues 67-107) with Ile99 to Met mutation, crystallised (domain or fragment)”, the stoichiometry N in assay [1] stood at 2. On to “CapH C-terminal domain (residues 67-107), crystallised (domain or fragment)”, for which, in assay [2], the stoichiometry N was found to be 4. “MBP-fused CapH (I99M) mutant (natural protein)” returned a stoichiometry N in assay [3] of 2.

As a reminder, the stoichiometry N is a count of units in the complex or per binding partner.
